Test results reported in patent publication US20260242497A1 (VIAL HEALTH TECHNOLOGY, published 2026).
Changes are numbered by the printed parent chain. Numbers in names are those of the source. Where “and” joins values, the source holds several entries; their conditions need not be identical. Equal entries are not always repeated.

T1: TL1A (antigen of Examples 1 and 2, species not stated) (UniProt O95150 57-251, limits assumed)
T1 construct: also called recombinant purified antigen; TNFSF15
T1 sequence (looked up): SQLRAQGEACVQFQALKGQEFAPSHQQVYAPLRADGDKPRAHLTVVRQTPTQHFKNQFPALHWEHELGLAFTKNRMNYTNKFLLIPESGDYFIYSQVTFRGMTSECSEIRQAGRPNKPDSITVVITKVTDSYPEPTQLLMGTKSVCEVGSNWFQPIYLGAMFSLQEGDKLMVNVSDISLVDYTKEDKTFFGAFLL

T2: biotinylated recombinant human TL1A (human, UniProt O95150 57-251, limits assumed, biotinylated (sites not given))
T2 sequence: T1 sequence (looked up)

B1: AB_TL1A_02_004 (antibody, human IgG1, kappa)
heavy: QVQLVQSGAEVKKPGASVKVSCKASGYDFTYYGISWVRQAPGQGLEWMGWISPYNGNTHYAQKLQGRVTMTTDTSTRTAYMELRSLRSDDTAVYYCARENYYGSGAYRGGMDVWGQGTTVTVSSASTKGPSVFPLAPSSKSTSGGTAALGCLVKDYFPEPVTVSWNSGALTSGVHTFPAVLQSSGLYSLSSVVTVPSSSLGTQTYICNVNHKPSNTKVDKKVEPKSCDKTHTCPPCPAPEAAGAPSVFLFPPKPKDTLMISRTPEVTCVVVDVSHEDPEVKFNWYVDGVEVHNAKTKPREEQYNSTYRVVSVLTVLHQDWLNGKEYKCKVSNKALPAPIEKTISKAKGQPREPQVYTLPPSREEMTKNQVSLTCLVKGFYPSDIAVEWESNGQPENNYKTTPPVLDSDGSFFLYSKLTVDKSRWQQGNVFSCSVMHEALHNHYTQKSLSLSPG
light: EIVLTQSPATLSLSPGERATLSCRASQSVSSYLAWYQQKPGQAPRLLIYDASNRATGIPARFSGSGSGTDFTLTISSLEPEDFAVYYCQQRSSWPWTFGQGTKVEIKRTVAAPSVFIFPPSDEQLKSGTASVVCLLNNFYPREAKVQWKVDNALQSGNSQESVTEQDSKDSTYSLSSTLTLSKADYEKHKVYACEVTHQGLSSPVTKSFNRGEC
B2: AB_TL1A_02_004_HL2 (antibody, human IgG1, kappa)
heavy: B1 heavy with M435L, N441S
light: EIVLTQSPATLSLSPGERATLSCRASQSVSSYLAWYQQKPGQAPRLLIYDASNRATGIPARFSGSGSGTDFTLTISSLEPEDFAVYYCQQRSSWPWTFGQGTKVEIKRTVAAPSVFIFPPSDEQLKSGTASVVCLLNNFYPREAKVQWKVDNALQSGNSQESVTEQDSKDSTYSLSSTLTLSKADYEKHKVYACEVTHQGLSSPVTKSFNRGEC
notes: HLE mutations M428L, N434S
B3: AB_TL1A_02_004_HL4 (antibody, human IgG1, kappa)
heavy: B1 heavy with H440K, N441F
light: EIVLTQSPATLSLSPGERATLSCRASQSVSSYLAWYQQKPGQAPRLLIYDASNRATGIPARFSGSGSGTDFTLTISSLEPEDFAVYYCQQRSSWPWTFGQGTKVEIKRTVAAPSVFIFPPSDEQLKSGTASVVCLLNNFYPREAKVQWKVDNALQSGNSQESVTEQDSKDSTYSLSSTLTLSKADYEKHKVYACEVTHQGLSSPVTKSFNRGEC
notes: built from the name and the HLE mutation column
B4: AB_TL1A_02_004_HL9 (antibody, human IgG1, kappa)
heavy: B1 heavy with Q318R, M435L, H440K, N441F
light: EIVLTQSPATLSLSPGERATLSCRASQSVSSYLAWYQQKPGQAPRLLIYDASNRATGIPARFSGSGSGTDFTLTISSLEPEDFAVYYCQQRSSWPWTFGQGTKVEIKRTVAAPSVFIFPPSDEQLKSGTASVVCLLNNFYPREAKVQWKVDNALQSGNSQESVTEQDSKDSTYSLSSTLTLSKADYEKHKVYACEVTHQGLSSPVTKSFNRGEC
notes: as for B3
B5: RVT-3101 (antibody, human IgG1, kappa)
heavy: B1 heavy with P53T, Q62R, K63M
light: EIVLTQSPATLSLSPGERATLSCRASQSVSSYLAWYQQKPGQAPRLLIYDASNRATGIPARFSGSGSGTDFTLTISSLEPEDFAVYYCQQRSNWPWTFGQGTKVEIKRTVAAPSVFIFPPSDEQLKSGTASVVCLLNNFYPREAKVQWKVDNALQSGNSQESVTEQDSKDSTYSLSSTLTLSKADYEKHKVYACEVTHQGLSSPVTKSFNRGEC
notes: Comparator anti-TL1A antibody, no HLE mutation; also called RVT-3101 (Roche); anti-TL1A comparator antibody
B6: AB_TL1A_02_004 with a C-terminal fused assay tag (prokaryotic in vitro translation, BLI of Example 1) (antibody, human IgG1, kappa)
heavy: B1 heavy
light: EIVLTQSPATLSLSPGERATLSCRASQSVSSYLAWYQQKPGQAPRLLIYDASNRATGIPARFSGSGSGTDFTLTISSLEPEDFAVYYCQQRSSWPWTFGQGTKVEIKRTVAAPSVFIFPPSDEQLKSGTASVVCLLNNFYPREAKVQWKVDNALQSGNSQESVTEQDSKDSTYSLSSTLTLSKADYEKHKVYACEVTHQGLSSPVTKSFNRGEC

Tests used:
human FcRn [1] = target: T3, human FcRn (human, UniProt P55899 24-297; P61769 21-119); test: SPR, Biacore 8K, CM5 chip, antibody immobilised, human FcRn as analyte, pH 6.0
T3 construct: also called neonatal Fc receptor
T3 sequence (P55899 24-297 limits assumed, chain 1 of 2): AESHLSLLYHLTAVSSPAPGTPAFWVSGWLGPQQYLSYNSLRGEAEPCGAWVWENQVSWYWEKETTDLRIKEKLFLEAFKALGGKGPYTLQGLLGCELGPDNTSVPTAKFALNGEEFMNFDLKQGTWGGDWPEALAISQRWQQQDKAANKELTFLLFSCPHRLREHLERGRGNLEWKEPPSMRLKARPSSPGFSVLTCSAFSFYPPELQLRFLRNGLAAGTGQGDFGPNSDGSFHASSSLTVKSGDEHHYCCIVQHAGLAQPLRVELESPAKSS
T3 sequence (P61769 21-119 limits assumed, chain 2 of 2): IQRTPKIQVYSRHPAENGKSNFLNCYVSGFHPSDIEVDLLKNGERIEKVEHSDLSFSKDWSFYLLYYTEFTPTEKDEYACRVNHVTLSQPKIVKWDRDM
Protocol: (§1) The 1×PBST running buffer was prepared at both pH 6.0 and pH 7.4. Kinetic measurements were obtained for association and dissociation times of 60 and 90 seconds, respectively, at a flow rate of 30 μL/min. The CM5 chips were regenerated with 1×PBS (pH 7.4). Kinetic parameters for the concentration series at both pHs were fit to a steady state affinity model and averaged using the Biacore Evaluation Software. Each concentration series was fit independently to obtain the average rates and binding affinities.
SPR analysis was performed using a Bioacore 8K instrument and a CM5 with the antibody immobilized at 10 g/mL concentration, as above.

[2] = target: T1, TL1A (antigen of Examples 1 and 2, …); test: SPR, Biacore 8K, Protein A chip, antibody captured, antigen as analyte (second line)
Protocol: (§2) To perform SPR analysis using the Biacore 8K and Protein A Chip, the chip was equilibrated with Running Buffer (1×HBS-EP+). A solution of the capture ligand (0.35 μg/mL antibody) was prepared in Running Buffer and injected over the chip surface at a flow rate of 10 μL/min for 30 sec until a stable capture level of about 210-470 RU was achieved, followed by washing to remove excess ligand. For sample analysis, analyte samples were prepared in Running Buffer and injected over the chip surface at a flow rate of 30 μL/min for association (180 seconds) and dissociation (3600 seconds). The chip surface was regenerated between sample injections using a regeneration buffer such as 10 mM Gly-HCl, pH 1.5 at a flow rate of 30 μL/min. Sensorgram data was analyzed to determine binding kinetics and affinity, and the steps were repeated for additional samples as needed. The chip was thoroughly washed and regenerated after the experiment, and stored according to manufacturer's recommendations. The data was analyzed using Biacore evaluation software to calculate kinetic parameters for observed interactions.

[3] = target: T2, biotinylated recombinant human TL1A; test: competition ELISA, blocks biotinylated human TL1A (3.5 nM) binding to coated DR3/Fc
Protocol: (§3) Plates were coated with 4 g/mL of DR3/Fc or 1 g/mL of DcR3/Fc by adding 100 μL per well, and were incubated overnight at 4° C. 1×PBST was added at 200 μL per well, and after a 10-second incubation, the liquid was poured out and the plate was pat dried on blotting paper. This process was repeated three times. The plates were then blocked with 2% BSA in 1×PBST at 200 μL per well for 2 hours at room temperature (RT), followed by a similar washing step. […] This mixture was then added to the DR3/Fc or DcR3/Fc coated wells and incubated at RT for 1 hour. Further washing steps were performed, followed by the addition of a secondary antibody at 100 μL per well, which was incubated at RT for 0.5 hours. Additional washing steps were conducted, and TMB was added to each well at 100 μL and incubated at RT for 15 minutes. The reaction was stopped with 100 μL of 2M HCl stop solution per well, and the plates were read with a microplate reader at 450 nm. For buffer preparation, coating buffer consisted of 1×PBS, washing buffer was 0.05% tween-20 in 1×PBS, blocking buffer was 1% BSA in 1×PBST, and both test antibody dilution buffer and secondary antibody dilution buffer were prepared using blocking buffer.

[4] = target: T2, biotinylated recombinant human TL1A; test: competition ELISA, blocks biotinylated human TL1A (3.5 nM) binding to coated DcR3/Fc
Protocol: as §3

human FcRn [5] = target: T3, human FcRn; test: SPR, Biacore 8K, CM5 chip, antibody immobilised, human FcRn as analyte, pH 6.0, steady-state affinity fit
Protocol: as §1

[6] = target: T1, TL1A (antigen of Examples 1 and 2, …); test: SPR, Biacore 8K, Protein A chip, antibody captured, antigen as analyte
Protocol: as §2

[7] = target: T1, TL1A (antigen of Examples 1 and 2, …); test: cell-based or functional assay
human FcRn [8] = target: T3, human FcRn; test: SPR, Biacore 8K, CM5 chip, FcRn, pH 6.0
Protocol: FcRn binding kinetics at pH 6.0 and pH 7.4 were measured using a Biacore® 8K instrument (Cytiva) with a CM5 chip.

[9] = target: T1, TL1A (antigen of Examples 1 and 2, …); test: BLI (Gator Bio), tagged antibody on Strep-Tactin XT probes, recombinant purified antigen as analyte, 25 C
Protocol: Materials utilized in the assay included K Buffer (Assay Buffer) containing 0.02% BSA and 0.002% Tween-20 in PBS, pH 7.4, sourced from Gator Bio, Regen Buffer comprising 10 mM Glycine, pH 1.7, from Gator Bio, and Strep-Tactin XT probes. The protocol involved preparing samples of interest by diluting them in Assay Buffer, then performing analyte dilution series by diluting recombinant purified antigen into assay buffer to the correct target concentration. Samples were loaded into a sample plate and positioned in the plate positions on the BLI device. The assay was conducted in a temperature-controlled environment at 25° C. with shaking conditions set to 1000 rpm, recording data at a frequency of 5 Hz. Protocol cycles included Initial Baseline, Sample Loading, Baseline, Second Baseline, Association, and Dissociation steps. Probes were regenerated after each cycle following a recommended protocol of regeneration and neutralization. This cycle was repeated for every subsequent analyte concentration, typically ranging from 4 to 6 concentrations.

| Binder | Kd (human FcRn [1]) | IC50 [3] | IC50 [4] | Kd (human FcRn [5]) | Kd [6] | Fold Increase (FI) relative to RVT-3101 (human FcRn [5]) | further results |
| --- | --- | --- | --- | --- | --- | --- | --- |
| B1 | 2430 nM and 2240 nM | 0.92 to 1.01 nM | 1.2 to 1.51 nM | 2430 nM and 2240 nM | < 0.0256 nM | – | Kd [2]: < 0.0469 nM |
| B2 | 159 nM and 190 nM | 0.58 nM | 1.3 nM | – | < 0.0262 nM | – | IC50 (nM), inhibition of TL1A-induced apoptosis of TF-1 cells (Caspase-Glo 3/7) [7]: 0.87 nM; max inhibition of TL1A-induced apoptosis of TF-1 cells [7]: 95%; Kd (human FcRn [8]): 159 nM and 190 nM |
| B3 | – | – | – | 132 nM | – | 18.5 fold | – |
| B4 | 36 nM and 43.3 nM | – | – | 36 nM and 43.3 nM | – | – | – |
| B5 | 2440 nM and 2450 nM and 2460 nM | – | – | 2440 nM and 2450 nM and 2460 nM | – | 1 fold | Fold Increase (FI) relative to Rituximab (human FcRn [1]): 0.9 fold |
| B6 | – | – | – | – | – | – | Kd [9]: 5.17 nM and 5 nM; kon [9]: 380000 M⁻¹ s⁻¹ |
